Test results: patent US20060127409A1 (published 2006)

How the values were obtained:
[1] = biological target: T1, HLA-A0201 molecule on T2 cells (TAP-, HLA-A0201+) (human); experiment: T2 binding and stabilization assay, flow cytometry with BB7.2
T1 construct: Empty, thermolabile HLA-A0201 on TAP-deficient T2 cells, stabilised by added peptide; surface level read with mAb BB7.2; also called HLA-A2.1; HLA-A2
Description: (§1) T2 cells (TAP-, HLA-A0201⁺) were incubated overnight at 37° C. at a concentration of 1×10⁶ cells/ml in FCS-free RPMI medium supplemented with 5 μg/ml human β₂m (Sigma, St Louis, Mo.) in the absence (negative control) or presence of either a positive reference tyrosinase peptide or test peptides at various final concentrations (50, 10, 1, and 0.1 micrograms (μg)/ml). Following a 4-hour incubation with 5 μg/ml brefeldin A (Sigma), T2 cells were labeled for 30 minutes at 4° C. with a saturating concentration of anti-HLA-A2.1 (BB7.2) mAb, then washed twice. Cells were then incubated for 30 minutes, 4° C. with a saturating concentration of FITC-conjugated goat IgG F(ab′)2 anti-mouse Ig (Caltag, San Francisco, Calif.), washed twice, fixed in PBS/1% paraformaldehyde and analyzed using a FACS Calibur® cytofluorometer (Becton Dickinson, Immunocytometry Systems, San Jose, Calif.)
(§2) The mean intensity of fluorescence (MIF) observed for each peptide concentration (after dividing by the MIF in the absence of peptide) was used as an indication of peptide binding and expressed as a “fluorescence index.” Stabilization assays were performed similarly. Following initial evaluation of peptide binding at time 0, cells were washed in RPMI complete medium to remove free peptides and incubated in the continuous presence of 0.5 μg/ml brefeldin-A for 2, 4, 6 or 8 hours.

[2] = biological target: T1, HLA-A0201 molecule on T2 cells (TAP-, …); experiment: refers to the T2 assay
Description: as §1, §2

Binder | binding result [1] | binding result [2]
YLINKEEAL (Synthetic analogue of b2a2A; also called YLINKEEAL) [b2a2 A3 (analogue)] | binds | 
YLINKEEAV (Synthetic analogue of b2a2A) [b2a2 A4 (analogue)] | binds | 

The next lines start with the values.

binding result [1] | binding result [2] | Binder
binds |  | YLINKVEAL (Synthetic analogue of b2a2A; also called YLINKVEAL) [b2a2 A5 (analogue)]
binds |  | KALQRPVAS [p210Cn native (p210-b3a2)]
 | binds | SSKALQRPV (Synthetic 9-mer) [CMLA2 native (p210-b3a2)]
